Patent US20180355050A1 (Ablynx, published 2018)

Experiments:
[1] = target: T1, human CD40L expressed on CHO cells (human, UniProt P29965 1-261); experiment: cell-based or functional assay
T1 sequence: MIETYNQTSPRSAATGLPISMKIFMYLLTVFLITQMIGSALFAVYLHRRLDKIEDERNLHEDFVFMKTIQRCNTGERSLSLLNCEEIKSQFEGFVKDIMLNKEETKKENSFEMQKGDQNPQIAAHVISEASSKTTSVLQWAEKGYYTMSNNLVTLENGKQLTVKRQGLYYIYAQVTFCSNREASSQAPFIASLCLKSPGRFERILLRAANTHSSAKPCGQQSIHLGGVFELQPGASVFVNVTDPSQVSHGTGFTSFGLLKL

[2] = target: T1, human CD40L expressed on CHO cells; experiment: cell-based or functional assay; remark: listed apart in the source
[3] = target: T2, rat CD40L on transiently transfected HEK cells (rat, UniProt Q9Z2V2 1-260); experiment: FACS on HEK cells transiently transfected with rat CD40L
T2 construct: whole, on cells
T2 sequence (looked up): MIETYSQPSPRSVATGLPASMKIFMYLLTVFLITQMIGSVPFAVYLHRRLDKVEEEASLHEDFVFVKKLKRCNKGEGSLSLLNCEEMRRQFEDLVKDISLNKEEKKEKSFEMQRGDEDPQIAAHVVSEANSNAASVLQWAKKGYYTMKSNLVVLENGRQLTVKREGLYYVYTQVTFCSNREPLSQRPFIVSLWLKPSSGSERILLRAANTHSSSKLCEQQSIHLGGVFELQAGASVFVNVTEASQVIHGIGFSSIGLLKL
Protocol: Cross-reactivity to rat CD40L (UniProt accession numbers: Q9Z2V2 and Q9R254 (secondary)) was tested in FACS. Purified Nanobodies were analyzed on FACS for binding to rat CD40L. 2×10⁵ cells (transiently transfected rat CD40L HEK cells) were incubated with the purified Nanobodies in FACS buffer for 30 minutes at 4° C. Cells were washed 3×, re-suspended and incubated for 30 minutes at 4° C. Cells were washed again 3× and dead cells were stained with TOPRO3 (Molecular probes, T3605). Samples were analyzed on a FACSarray™ (BD Biosciences).

[4] = target: T3, recombinant human CD40L (human, UniProt P29965 108-261, limits assumed); experiment: FACS ligand competition, biotinylated human CD40L on cyno CD40 HEK cells
T3 construct: Bought soluble recombinant protein (R&D, HEK, 6420-CL/CF); also called hCD40L; human CD40L (HEK, R&D)
T3 sequence: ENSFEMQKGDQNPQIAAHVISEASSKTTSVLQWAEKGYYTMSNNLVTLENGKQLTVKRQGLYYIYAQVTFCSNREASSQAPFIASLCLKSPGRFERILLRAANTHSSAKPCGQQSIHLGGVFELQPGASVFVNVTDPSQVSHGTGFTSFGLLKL
Protocol: Cross-reactivity to cynomolgus CD40L (UniProt accession number: G7PG38) and rhesus CD40L (UniProt accession number: G7N4M5) was tested in a ligand competition assay. […] 2×10⁵ cells (transiently transfected HEK cells) were incubated with dilution series of the purified Nanobodies in FACS buffer for 30 minutes at 4° C. Cells were then washed 3× and finally resuspended in FACS buffer containing Streptavidin-PE (BD Pharmingen, #554061). This mixture was incubated for 30 minutes at 4° C. Cells were further handled as set out above.

[5] = target: T3, recombinant human CD40L; experiment: FACS ligand competition, biotinylated human CD40L on human CD40 HEK cells
[6] = target: T3, recombinant human CD40L; experiment: FACS ligand competition, biotinylated human CD40L on rhesus CD40 HEK cells
[7] = target: human TNFα (human, UniProt P01375 77-233); experiment: competition ELISA on coated human CD40L, fixed Nanobody, dilution series of competitor
Text: (§1) The Basic Local Alignment Search Tool (BLAST) was used to identify the closest related protein in the human protein database. […] A fixed concentration of Nanobody was used together with a dilution series of competitor (TNFα, HVEM-L (TNF14) and hRANKL (TN F11); CD40L was used as positive control), starting at a 100-fold excess. The Nano bodies were detected with anti-FLAG-HRP (Sigma (A8592)).

[8] = target: HVEM-L (TNF14) (human, UniProt O43557 74-240, limits assumed); experiment: as above
Text: as §1

[9] = target: T4, hRANKL (TNF11) (human, UniProt O14788 140-317, limits assumed); experiment: as above
T4 sequence (looked up): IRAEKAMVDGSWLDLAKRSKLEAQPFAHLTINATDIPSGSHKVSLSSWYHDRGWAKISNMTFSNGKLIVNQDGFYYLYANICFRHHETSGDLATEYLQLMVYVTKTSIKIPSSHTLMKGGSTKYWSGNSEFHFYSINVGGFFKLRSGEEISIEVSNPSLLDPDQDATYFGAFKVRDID
Text: as §1

[10] = target: T5, recombinant mouse CD40L (mouse, UniProt P27548 112-260, limits assumed); experiment: SPR (ProteOn), immobilised recombinant mouse CD40L 3000-4000 RU; member of the lead panel
T5 construct: also called mouse CD40L (R&D NSO)
T5 sequence (looked up): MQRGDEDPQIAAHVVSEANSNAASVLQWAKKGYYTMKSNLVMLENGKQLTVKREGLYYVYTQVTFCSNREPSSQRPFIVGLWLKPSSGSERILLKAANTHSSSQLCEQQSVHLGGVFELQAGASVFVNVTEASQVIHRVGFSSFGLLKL
Protocol: To assess binding to mouse CD40L (UniProt accession number: P27548), ProteOn GLC Sensor Chips were coated with 3000-4000 RU of recombinant mouse CD40L (R&D NSO) in 10 mM acetate buffer pH5.5. Purified monovalent anti-CD40L Nanobodies in ProteOn running buffer: PBS/Tween (phosphate buffered saline, pH 7.4 with 0.005% Tween 20) were flown over the sensor chips at 100 nM. Processed curves were used for off-rate analysis based on the Langmuir dissociation model.

[11] = target: T3, recombinant human CD40L; experiment: FACS ligand competition, biotinylated human CD40L on human CD40 HEK cells; * suboptimal curve fit

HVEM-L (TNF14), sequence (O43557 74-240 limits assumed): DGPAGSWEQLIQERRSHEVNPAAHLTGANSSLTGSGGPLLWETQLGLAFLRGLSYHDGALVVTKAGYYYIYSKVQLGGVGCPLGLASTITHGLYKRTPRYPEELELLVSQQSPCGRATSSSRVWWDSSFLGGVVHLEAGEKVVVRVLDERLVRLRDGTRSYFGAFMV
human TNFα, sequence (P01375 77-233 limits assumed): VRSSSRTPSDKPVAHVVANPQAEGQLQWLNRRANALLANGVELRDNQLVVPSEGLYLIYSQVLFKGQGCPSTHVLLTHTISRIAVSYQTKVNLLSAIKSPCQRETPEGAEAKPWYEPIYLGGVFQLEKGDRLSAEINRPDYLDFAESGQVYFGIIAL

B1: C0100029C10 (VHH)
VHH: EVQLVESGGGLVQPGGSLRLSCAASGFTLDYYALGWFRQAPGKEREGVSCISSTESSDGSTYYADSVKGRFTISRDSAKNTVYLQMNSLKPEDTAVYYCATDQTLFGVCRGIATPDPGFWGQGTLVTVSS
notes: Monovalent Nanobody; tag of the monovalent form not spelled out; also called C01000029C10
IC50 (M), B-cell proliferation assay, +HSA [1]: 1.06e-09 M
Average IC50 (M), B-cell proliferation assay [2]: 1.26e-09 M
binding result [3]: no binding
% block (maximum observed effect) [4]: 81%
IC50 [4]: 8.07 nM
% block (maximum observed effect) [5]: 98%
% block (maximum observed effect) [6]: 87%
IC50 [6]: 12.4 nM
binding result [7]: no binding (tested: competitor from a 100-fold excess)
binding result [8]: no binding (tested: competitor from a 100-fold excess)
binding result [9]: no binding (tested: competitor from a 100-fold excess)
binding result [10]: no binding (tested: 100 nM)
IC50 [11]: 0.142 nM
